System: serum IgG and IgA antibodies
Test: ELISA for serum IgG and IgA antibodies to the P. copri protein (Pc-p27)
Format: binding, human
Description: ELISA for serum IgG and IgA antibodies to the P. copri protein (Pc-p27). ELISA plates were coated with 0.25 μg/ml of the P. copri protein Pc-p27 (GenScript USA Inc, Piscataway, N.J.) overnight at 4° C. Subsequent incubations and washes were performed at room temperature. After washing with phosphate buffered saline with 0.05% Tween-20 (PBST), the plates were incubated with blocking buffer (5% nonfat dry milk in PBST) for one hour. Afterwards, 100 μl of each patient's serum sample (diluted 200-fold) was added in duplicate wells for 1.5 hours, followed by horseradish-peroxidase (HRP)-conjugated goat anti-human IgG (sc-2453, Santa Cruz Biotech) or HRP-conjugated goat anti-human IgA (Bio-Rad, Hercules, Calif.) and then TMB substrate (BD, San Diego, Calif.). For inter-plate standardization, 2 control samples were included on each plate.

B1: Pc-p27: full length 27-kD protein of P. copri, recombinant (GenScript) (protein, listed as Prevotella copri)
chain: MKRIILILTVLLAMLGQVAYAQKTCVIASAENHVPIREALIHTNNNHWARTDYRGYWTMRYQFDSATVSKPGFMKATIRYKELPDTLFLLPDAKQLGEVTVWGKNQEGIKNMEEDIQEKINSLPTSSTGIGFDAFGWMDKQGKRDKKHLQQAKKVFEKMEHKDPVVAAYEKATGKKYELTNPYDVSAFKKDPPSEMATEEKKATSDAESKSKKKENPEKYAQE
Question: What does the source list for B1?
Answer: patients with positive IgG antibody responses (49 CRA patients): 20%; patients with IgG antibody responses >3 SD above HC (78 NORA patients, serum diluted 200-fold): 13%; patients with IgG or IgA antibody responses (127 RA patients): 24%; patients with IgA antibody responses (both the NORA and CRA groups): About 10%
